The text below walks through data of the DeepSol protein solubility set.

The series in a line: soluble on expression in E. coli; label from the status in PepcDB or PDB records.
For the sequence “MTATTNESQEIAMTATTADEIPASTEQNLRIVQRVIFPANRDLDTLPLYVDPDTNKLHTSGGGADVQAIGMARKLHPEDILNRGSVQVRRGERLSFGSYFNAFPASYWRKWTIATKTVLHIETEGEGTVIVYRSNARGASQRVDSILVEGPSTNEFELTLAPFGDGGWYWFDLIAGGDGMTLKSAHWAVPDEGRPQGRVTLGVTTFNRADYCLETIKSIDGDAGLREILAELIIVDQGNKKVADQAGFDAVAESMGDQLRIINQGNLGGSGGFARNMYEMVVSDKSDYVMLLDDDIELETEGVMRAVAFADLCRKPTIVGGHMFDMYNKSVLHAYSEVVNFYRFLWGPVEGLGNHDFSTAGLRSTPQLHRRWDADYNGWWMCLIPKTVVETIGLSLPVFIKWDDAEYSLRGRAAGFPTVTLPGAAVWHVSWADKDDSVDWQAYYHERNRLIATLLHSPFPKGGRILRESLNTDVKHLVSMQYYPEQARVMALRDVLAGPDNLHKQLPTTMPKLRAMREEFPDSQVKTDPAAFPEVFRKRPPKKPQSFKQPGALGLLPWAVKTVLKQTLAPVRGTAKAAPEAHVAHQDGKWWSLAHLDSAVVSNADGTGASWHLRNPKMARQLVVESAKLHAQLFSNWETLRAQYREALPEITSMESWRETFEASEPSK”, the “soluble on expression in E. coli” value was “not soluble”. Regarding “MGSDKIHHHHHHMKCNDKLAPFEVFDHVVNKKLSFRHVTMDDVDMLHSWMHEEHVIPYWKLNIPLVDYKKHLQTFLNDDHQTLMVGAINGVPMSYWESYWVKEDIIANYYPFEEHDQGIHLLIGPQEYLGQGLIYPLLLAIMQQKFQEPDTNTIVAEPDRRNKKMIHVFKKCGFQPVKEVELPDKIGLLMKCEQNVFEKRWSDWKMNKF”, the “soluble on expression in E. coli” value is on record as “not soluble”.

Consider “MYCPFCHNDQSRVIDSRVIDSGSAIRRRRECTQCKNRFTTVEKAQLLVVKRNGLTEPFSREKVIVGVRRACQGRDVSDDALKRLAQQVEERVRLHGSSQIHANEIGLAILEPLRELDEVAYLRFASVYKSFESADDFESEIRLMRRRDRSN”, for which the “soluble on expression in E. coli” value is “not soluble”. In the case of “MTDSDGKIVWETGYQVWGNTIQEKDHGGVEQNLRYQGQYLDRETGLHYNLHRYYDPDVGRFMVTDPIGLRGGLNLYSYAPNPLKYADPLGLTPCAVSNQKANRLLDSSETKVTVRSRSDAEQLFMDRYLGHNYKNMTGESGPSTKNLMEYLTENKTKAGSYHWDDIKDPSVTKPSYRVSGHGPGNPDGDLPHLQVHQHGGSVRHIFFPWETLEHHHHHH” it was “not soluble”. In the case of “MNMSRHDEFGGSTNKGPVQEHDVIMRGRRLLDITGVKQVESFDNEEFLLETVMGFLAIRGQNLQMKNLDVDKGVVSIKGRIFDLVYLDDHQEKAKGFFSKLFK” it was “not soluble”. In the case of “MIIEHNGNIHKIARMTGNKNNFLEIILSDIHENIKIKPLTIKVKGENVINILPEEVSFYVKQGVDLIYEKYKRKFFISEISFCQSDSRPSSIYAFLTFHLLEDIIKNESPSNYT” it was “not soluble”; in that of “MGSDKIHHHHHHMSISLNTCILILKEHHLLKSSAVQDTVATKMDYVSYDSRDIQTNTLFFCKGAGFRPTYLSMAKSNGANCYVAEQPYPEGKGMHALIVRDVSKAMALLSAAFFRFPQDDLYVVAFTGTKGKTTSAYFLKGMLDQANGGRTALISSVNDVVGPKPEDSFKSSLTTPESLDLFRDMRTAVDNGMTHLVMEVSSQAYKKNRVFGLTYDLGFFLNISPDHIGPNEHPNFADYLHCKLQLMVNSRKCIINAETANFNEVYAAATTTTNPDSIYLFAREDFENPDLDVPIDFRFASQELDMKETRFKLFCATDKAKKLPINGDYTLKMLGDFNESNGTAAIIGAGLAGLNHDQCAKGIRNVTIPGRMQTERTKEHGMVVVDYAHNKASMMALMRFMQNEFNDPKIIVVVGAPGDKGVSRRPGFSESLSAYADKAFLTTDDPGFEDPKSIAEEIDAGIDHSKCDVTIELDRKKAIHDAIASAGPDDVVLICGKGADAFQKIRGVDTPYPSDIVVAQQVINELEGQDEHFRK”, “not soluble”; in that of “MQNNNEFKIGNRSVGYNHEPLIICEIGINHEGSLKTAFEMVDAAYNAGAEVVKHQTHIVEDEMSDEAKQVIPGNADVSIYEIMERCALNEEDEIKLKEYVESKGMIFISTLFSRAAALRLQRMDIPAYKIGSGECNNYPLIKLVASFGKPIILSTGMNSIESIKKSVEIIREAGVPYALLHCTNIYPTPYEDVRLGGMNDLSEAFPDAIIGLSDHTLDNYACLGAVALGGSILERHFTDRMDRPGPDIVCSMNPDTFKELKQGAHALKLARGGKKDTIIAGEKPTKDFAFASVVADKDIKKGELLSGDNLWVKRPGNGDFSVNEYETLFGKVAACNIRKGAQIKKTDIE”, “soluble”. For “VDREQLVQKARLAEQAERYDDMAAAMKNVTELNEPLSNEERNLLSVAYKNVVGARRSSWRVISSIEQKTSADGNEKKIEMVRAYREKIEKELEAVCQDVLSLLDNYLIKNCSETQYESKVFYLKMKGDYYRYLAEVATGEKRATVVESSEKAYSEAHEISKEHMQPTHPIRLGLALNYSVFYYEIQNAPEQACHLAKTAFDDAIAELDTLNEDSYKDSTLIMQLLRDNLTLWTSDQQDDDGGEGNN”, the “soluble on expression in E. coli” value was “soluble”.

Turning to “STSLPQISTLMREKSVENKLKVKAKDDHMVPSGLYEVRAIQLPGGSWRHYYVDHSSKETYWILPYSHPDGASSHPLEKLPVYLPSYEECVDETNPLAVPEVCSPARD”, the “soluble on expression in E. coli” value was “soluble”. As for “METQDHTLYVLLGPTGVGKTDLSLDIAERLGSPIISADSRQIFRELPIGTAAPTPEQRAKVPHLFVGTHSVRDYYSAGMYEVEVLEALKELFRKYRGVLLTGGSMMYIDAVCRGIDDIPDPFPEVREELYARYAAEGLDGILAQLRLLDPDYYAKVDRRNYKRVIHGLEICLSTGRPFSSFHRHEAKERPFRIVKIGLYREREELCKRIDARVLEMMEQGLEEEARAVYPLRHLNALNTVGYKEMFEYFDGSIDRAEAVRRIQRNSRVYARKQMTWFRRDSTIRWFHPEADKGTVLTLVT”, the entry is “not soluble”; as for “GVVETPRSALKVTAQPNDVLLGNYVVLSPQTVLKSSKLAPVHPLAEQVKIITHNGRAGGYQVDGYDGRVLLPCGSAIPVPEFQALSESATMVYNEREFVNRKLYHIAVHGPSLNTDEENYEKVRAERTDAEYVFDVDKKCCVKREEASGLVLVGELTNPPFHEFAYEGLKIRPSAPYKTTVVGVFGVPGSGKSAIIKSLVTKHDLVTSGKKENCQEIVNDVKKHRGKGTSRENSDSILLNGCRRAVDILYVDEAFACHSGTLLALIALVKPRSKVVLCGDPKQCGFFNMMQLKVNFNHNICTEVCHKSISRRCTRPVTAIVSTLHYGGKMRTTNPCNKPIIIDTTGQTKPKPGDIVLTCFRGWAKQLQLDYRGHEVMTAAASQGLTRKGVYAVRQKVNENPLYAPASEHVNVLLTRTEDRLVWKTLAGDPWIKVLSNIPQGNFTATLEEWQEEHDKIMKVIEGPAAPVDAFQNKANVCWAKSLVPVLDTAGIRLTAEEWSTIITAFKEDRAYSPVVALNEICTKYYGVDLDSGLFSAPKVSLYYENNHWDNRPGGRMYGFNAATAARLEARHTFLKGQWHTGKQAVIAERKIQPLSVLDNVIPINRRLPHALVAEYKTVKGSRVEWLVNKVRGYHVLLVSEYNLALPRRRVTWLSPLNVTGADRCYDLSLGLPADAGRFDLVFVNIHTEFRIHHYQQCVDHAMKLQMLGGDALRLLKPGGILMRAYGYADKISEAVVSSLSRKFSSARVLRPDCVTSNTEVFLLFSNFDNGKRPSTLHQMNTKLSAVYAGEAMHTAGC”, “soluble”. In the case of “VGTIDQLVKRVIEGSLSPKERTLLKEDPAYWFLSDENSLEYKYYKLKLAEMQR” it was “soluble”; in that of “AMGTKSSAAVALKGLQFVTAKVGNDGWAAVEKRFNQLQVDGVLLRSRFGKCIGMDGSDEFAVQMFDSLARKRGIVKQVLTKDELKDFYEQLTDQGFDNRLRTFFDMVDKNADGRLTAEEVKEIIALSASANKLSKIKERADEYTALIMEELDPTNLGYIEMEDLEALLLQSPSEAAARS”, “soluble”; in that of “RYSHSLGVYELLRRILNTPAFAPIDENKKQTVLVAGLLHDIGHAPHSHAFEIYFAKAPNFKKELFIHEEVTTLFVNSEPIKSILKANQIDPKLVAALIDENKELKPSNYWMRQLISSDLDADRMDYLLRD”, “not soluble”. As for “QKFIARNRAPRVQIEYDVEIYGAERKIQLPFVMGVLADLAGKSNTPQPEVGERKFLDVDIDNFDERMKSVAPRAAFQVANTLTGAGHLNVDITFESIDDFSPATVARKVGALNEMLEARTQLANLLTYMDGKTGAEELIGQVLQNPALLGALAAAPKPA”, the entry is “not soluble”; as for “MGSDKIHHHHHHMEWILFDKDGTLIEFDSSWEKIGVRLVDQLLETFPVHDKEAAHRQLGIIDKKIKPDSVMGSGSLGEIIESFNGVTGKETSDWTRDTSQELIDSRVPENNWIDGVQETIQALRNEGYHIGIVTSDTKKGVDQFLEETQTRNLFDLVISTETHAEEKPHPKVLDPLFNAFDVEPGQVAIVGDTANDMKTAINANLGLGIGVLTGVAKKEELYDADVIINSAKDVKQVIEQYGK”, “not soluble”.

On to “MAHHHHHHMSCITSPPQPSSPPRMDAHTCVCIGITMPPAARQRKGARRSLTLPLLSLPWRKIRDQEGGAVCAGPVQQLPWKVRAEAALQSRPSPPAIRRRYLALSLPMRTSAAAAVAAAAHAGVRALHTATGVAGNSCGASPRATVALPPHSGLTLPSFTRCGASSAAFITRAHSVGCCGCAAAVKQHRLYSSHGCSSNSSGSFADSSRPYVPGQAVQETYPIIQLPARSLWCRQYALDARRVAQGEYAGLISQVREARHYYQYPSMSAPQTGWNVQMFTLFDNSVFINPVNLDEEVWRAEAARQGMSWVAFEEEKMRELRAEGLTGFAWEPCASSGFLLHYIERPLTVRMRALDEHGKPFTVTLDKMRARMALHELDHLQGVLFTRRVVDTDHVVPMEGFVTMSDWSDDYPSLEARSTFLYTIFTPPYHFVSDAVPDGNLLDRKFEDGIYPGCEQDRQQRIELTAMEEIQRNVWRKEKAKRKEGGQQCGRGDVTAVEDDDGSGAAGAR”, for which the “soluble on expression in E. coli” value was “not soluble”. As for “MSKSTAEIRQAFLDFFHSKGHQVVASSSLVPHNDPTLLFTNAGMNQFKDVFLGLDKRNYSRATTSQRCVRAGGKHNDLENVGYTARHHTFFEMLGNFSFGDYFKHDAIQFAWELLTSEKWFALPKERLWVTVYESDDEAYEIWEKEVGIPRERIIRIGDNKGAPYASDNFWQMGDTGPCGPCTEIFYDHGDHIWGGPPGSPEEDGDRYIEIWNIVFMQFNRQADGTMEPLPKPSVDTGMGLERIAAVLQHVNSNYDIDLFRTLIQAVAKVTGATDLSNKSLRVIADHIRSCAFLIADGVMPSNENRGYVLRRIIRRAVRHGNMLGAKETFFYKLVGPLIDVMGSAGEDLKRQQAQVEQVLKTEEEQFARTLERGLALLDEELAKLSGDTLDGETAFRLYDTYGFPVDLTADVCRERNIKVDEAGFEAAMEEQRRRAREASGFGADYNAMIRVDSASEFKGYDHLELNGKVTALFVDGKAVDAINAGQEAVVVLDQTPFYAESGGQVGDKGELKGANFSFAVEDTQKYGQAIGHIGKLAAGSLKVGDAVQADVDEARRARIRLNHSATHLMHAALRQVLGTHVSQKGSLVNDKVLRFDFSHNEAMKPEEIRAVEDLVNTQIRRNLPIETNIMDLEAAKAKGAMALFGEKYDERVRVLSMGDFSTELCGGTHASRTGDIGLFRIISESGTAAGVRRIEAVTGEGAIATVHADSDRLSEVAHLLKGDSNNLADKVRSVLERTRQLEKELQQLKEQAAAQESANLSSKAIDVNGVKLLVSELSGVEPKMLRTMVDDLKNQLGSTIIVLATVVEGKVSLIAGVSKDVTDRVKAGELIGMVAQQVGGKGGGRPDMAQAGGTDAAALPAALASVKGWVSAKLQ”, the entry is “soluble”.
